In assay [1] the target is mob1a_human MOB1A (UniProt Q9H8S9).
Assay [2] has the same target. This is another data set of the same source.

Chain of mob1a_human MOB1A (Q9H8S9 whole entry): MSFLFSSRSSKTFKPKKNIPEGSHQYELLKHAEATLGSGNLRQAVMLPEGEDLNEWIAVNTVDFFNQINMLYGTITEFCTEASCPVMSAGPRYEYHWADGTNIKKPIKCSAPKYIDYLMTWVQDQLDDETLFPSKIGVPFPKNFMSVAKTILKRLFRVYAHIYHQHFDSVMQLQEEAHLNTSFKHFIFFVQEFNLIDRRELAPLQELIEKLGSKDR
Chain of Serine/threonine-protein kinase 38 (Homo sapiens), Q15208 K24A (Q15208 whole entry K24A): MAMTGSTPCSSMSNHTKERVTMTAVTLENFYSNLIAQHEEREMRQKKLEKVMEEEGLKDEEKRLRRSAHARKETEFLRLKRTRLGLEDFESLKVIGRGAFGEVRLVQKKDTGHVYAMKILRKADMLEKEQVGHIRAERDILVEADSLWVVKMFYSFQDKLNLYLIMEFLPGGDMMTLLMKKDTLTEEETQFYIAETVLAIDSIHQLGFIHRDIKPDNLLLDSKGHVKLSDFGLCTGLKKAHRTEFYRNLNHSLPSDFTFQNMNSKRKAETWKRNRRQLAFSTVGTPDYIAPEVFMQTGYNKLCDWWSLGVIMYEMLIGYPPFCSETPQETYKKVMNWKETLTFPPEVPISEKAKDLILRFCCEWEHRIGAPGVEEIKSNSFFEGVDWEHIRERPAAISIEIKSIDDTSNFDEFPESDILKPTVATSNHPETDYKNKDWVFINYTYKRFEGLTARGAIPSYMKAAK
Chain of Serine/threonine-protein kinase 38 (Homo sapiens), Q15208 R44A (Q15208 whole entry R44A): as the sequence (Q15208 whole entry K24A) above, with A24K, R44A counted along it
Chain of Serine/threonine-protein kinase 38 (Homo sapiens), Q15208 Y31A (Q15208 whole entry Y31A): as the sequence (Q15208 whole entry K24A) above, with A24K, Y31A counted along it
Chain of Serine/threonine-protein kinase 38 (Homo sapiens), Q15208 L79A (Q15208 whole entry L79A): as the sequence (Q15208 whole entry K24A) above, with A24K, L79A counted along it
Chain of Serine/threonine-protein kinase 38-like (Homo sapiens), Q9Y2H1 Y32A (Q9Y2H1 whole entry Y32A): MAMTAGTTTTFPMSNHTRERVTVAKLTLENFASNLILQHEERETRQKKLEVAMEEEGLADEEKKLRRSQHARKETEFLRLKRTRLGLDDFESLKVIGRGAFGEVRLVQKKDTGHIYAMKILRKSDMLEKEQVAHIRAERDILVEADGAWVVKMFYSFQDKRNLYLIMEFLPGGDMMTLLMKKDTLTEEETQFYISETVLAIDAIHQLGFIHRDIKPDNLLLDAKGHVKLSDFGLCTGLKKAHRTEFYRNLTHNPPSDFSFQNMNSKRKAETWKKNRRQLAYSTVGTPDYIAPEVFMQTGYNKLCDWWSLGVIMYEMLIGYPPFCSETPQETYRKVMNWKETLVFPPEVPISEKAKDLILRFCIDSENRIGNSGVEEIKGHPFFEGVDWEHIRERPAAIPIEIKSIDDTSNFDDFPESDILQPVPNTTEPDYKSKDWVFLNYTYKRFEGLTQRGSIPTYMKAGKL
Chain of Serine/threonine-protein kinase 38 (Homo sapiens), Q15208 T74A (Q15208 whole entry T74A): as the sequence (Q15208 whole entry K24A) above, with A24K, T74A counted along it
Chain of Serine/threonine-protein kinase 38 (Homo sapiens), Q15208 R78A (Q15208 whole entry R78A): as the sequence (Q15208 whole entry K24A) above, with A24K, R78A counted along it
Chain of Serine/threonine-protein kinase 38 (Homo sapiens), Q15208 R41A (Q15208 whole entry R41A): as the sequence (Q15208 whole entry K24A) above, with A24K, R41A counted along it

“Serine/threonine-protein kinase 38 (Homo sapiens), Q15208 Y31A”: the “effect of a mutation on the interaction” value in the assay with mob1a_human MOB1A [1] is reported as “disrupting interaction”.
As to “Serine/threonine-protein kinase 38 (Homo sapiens), Q15208 R41A”, in the assay with mob1a_human MOB1A [1], the “effect of a mutation on the interaction” value was “disrupting interaction”.
As to “Serine/threonine-protein kinase 38 (Homo sapiens), Q15208 K24A”, the “effect of a mutation on the interaction” value with mob1a_human MOB1A [1] is on record as “decreasing interaction”.
Still for that read-out and setting: then “Serine/threonine-protein kinase 38 (Homo sapiens), Q15208 R78A”, with “disrupting interaction”.
“Serine/threonine-protein kinase 38 (Homo sapiens), Q15208 T74A”: in the assay with mob1a_human MOB1A [1], the “effect of a mutation on the interaction” value is “disrupting interaction”.
Take “Serine/threonine-protein kinase 38 (Homo sapiens), Q15208 R44A”: the “effect of a mutation on the interaction” value with mob1a_human MOB1A [1] is given as “decreasing interaction”.
On to “Serine/threonine-protein kinase 38-like (Homo sapiens), Q9Y2H1 Y32A”, for which, in the assay with mob1a_human MOB1A [2], the “effect of a mutation on the interaction” value is “disrupting interaction”.
As for “Serine/threonine-protein kinase 38 (Homo sapiens), Q15208 L79A”, the “effect of a mutation on the interaction” value with mob1a_human MOB1A [1] is “decreasing interaction”.

The record behind these values is IntAct's records for PubMed 15197186.
